Measured values from patent US20190202908A1 (Harvard, published 2019).

Target: EGFP (UniProt P42212 1-238 = GFP)
Assay: Biacore (SPR)

B1: GBP6 nanobody alone (VHH)
VHH: QVQLQESGGGSVQTGGSLRLSCAVSPYIGSRISLGWFRQAPGKVREGVALINSRDGSTYYADTVKGRFTISQGDANTVYLQMNSLKPEDTAIYYCAARWGQITDIQALAVASFPDWGQGTQVTVSS
notes: also called GPB6
B1 showed a Kd of 2.26 nM.
